Patent US20040259198

System: recombinant human MAT II β subunit protein with N-terminal poly-His tag, expressed in E. coli from pQE-30 (Clone 5)

Q: Which “Km (L-Met)” value does the source give for “recombinant human MAT II α2 subunit expressed in E. coli from the pQE-30 vector” here?
A: The value was “the cloned protein lowered the Km (L-Met) of the recombinant human MAT II α2 subunit from 80 µM to 34 µM”.

Q: And the “Km for L-Met in the presence of the MAT II β subunit” value?
A: Its value is “another kinetic form with a Km for L-Met of 32-34 µM was also apparent, in each case”.

Q: And the “Km of MAT for L-methionine” value?
A: Its value is “This association changed the kinetic properties of the enzyme and lowered the Km of MAT for L-methionine”.
